From article PMC10238420, “Altered Signaling and Desensitization Responses in PTH1R Mutants Associated with Eiken Syndrome” (Communications Biology, 2023)

Key:
[1] = target: PTH1R-E35K (human PTH1R with an HA tag) (human) (UniProt Q03431); assay: radioligand binding; total binding of ^125I-PTHrP(1-36) (20,000-30,000 cpm/well) to confluent monolayers of intact, transiently transfected Gs22a cells in 96-well plates; HB (Hanks balanced salt solution, 10 mM HEPES pH 7.4, 0.1% BSA); one hour at room temperature
[2] = target: PTH1R-Y134S (human PTH1R with an HA tag) (human) (UniProt Q03431); assay: as above
[3] = target: PTH1R-R485X (human PTH1R with an HA tag, C-terminal tail truncated at R485) (human) (UniProt Q03431)
[4] = target: human PTH1R-WT with an HA tag (parathyroid hormone receptor type 1) (human) (UniProt Q03431)

Chain of β-arrestin2-renilla luciferase (rLucII) (P32121 whole entry): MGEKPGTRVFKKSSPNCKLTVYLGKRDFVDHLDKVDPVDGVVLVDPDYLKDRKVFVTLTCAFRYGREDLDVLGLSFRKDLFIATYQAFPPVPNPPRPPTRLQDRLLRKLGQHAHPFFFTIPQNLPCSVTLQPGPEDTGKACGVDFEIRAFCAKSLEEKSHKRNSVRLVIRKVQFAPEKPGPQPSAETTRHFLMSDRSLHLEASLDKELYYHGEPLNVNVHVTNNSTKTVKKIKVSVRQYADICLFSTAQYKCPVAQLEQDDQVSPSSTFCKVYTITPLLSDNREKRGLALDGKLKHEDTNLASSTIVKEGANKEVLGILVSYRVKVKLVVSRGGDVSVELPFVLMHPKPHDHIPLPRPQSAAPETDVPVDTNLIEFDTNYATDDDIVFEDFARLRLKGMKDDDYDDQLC
Chain of ^125I-PTHrP(1-36) (peptide) (P12272 37-72): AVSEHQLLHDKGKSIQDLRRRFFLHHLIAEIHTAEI

| reduction of total binding relative to PTH1R-WT [1] [%] | reduction of total binding relative to PTH1R-WT [2] [%] | PTH(1-34)-induced recruitment of β-arrestin2^rLucII to endosomes (BRET with rGFP-FYVE), fold-BRET increase from baseline [3] [fold] | PTH(1-34)-induced recruitment of β-arrestin2^rLucII to the plasma membrane (BRET with rGFP-CAAX), fold-BRET increase from baseline [3] [fold] | PTH(1-34)-induced recruitment of β-arrestin2^rLucII to endosomes (BRET with rGFP-FYVE), fold-BRET increase from baseline [4] [fold] | PTH(1-34)-induced recruitment of β-arrestin2^rLucII to the plasma membrane (BRET with rGFP-CAAX), fold-BRET increase from baseline [4] [fold] | Substance |
| --- | --- | --- | --- | --- | --- | --- |
| 50 | 50 | – | – | – | – | ^125I-PTHrP(1-36) (peptide) |
| – | – | 1.33 | 2.69 | 6.08 | 4.79 | β-arrestin2-renilla luciferase (rLucII) (from UniProt P32121 1-409) (natural protein) |
